Patent US20190375786A1, “STABLE PEPTIDES AND METHODS OF USE THEREOF” (Fred Hutchinson Cancer Research Center, priority 2016, published 2019)
No end group written: not given here.

How the values were obtained:
[1] = Resistance to elevated temperature, HPLC; type: physicochemical
In short: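 Peptides were incubated at room temperature, 70° C or 100° C for one hour in ddH2O; another protocol used 70° C, 75° C or 100° C for one hour in 0.5 mM PBS, then pelleting and analysis of the supernatant. Remaining peptide was measured by C-18 RP-HPLC, 5–45% acetonitrile/0.1% TFA over 10 min.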

[2] = Resistance to reduction by DTT, RP-HPLC; type: physicochemical
In short: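 Peptide (12.5 μg from a 2 mg/ml stock, or 0.015 mM final in PBS) was held 30 min at room temperature with or without 10 mM DTT. Reduced and non-reduced forms were compared by C-18 RP-HPLC using a 5–45% acetonitrile/0.1% TFA gradient over 10 min, with detection at 214 and 280 nm.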

[3] = target: trypsin (Sus scrofa, UniProt P00761); assay: Trypsin digestion resistance of soluble peptide, RP-HPLC; type: in vitro ADME, porcine; design: purchased Sigma Aldrich 6567; settings: 500 U/ml trypsin, 30 minutes at 37.5° C.; HPLC peak vs untreated peptide
trypsin, sequence (P00761 9-231): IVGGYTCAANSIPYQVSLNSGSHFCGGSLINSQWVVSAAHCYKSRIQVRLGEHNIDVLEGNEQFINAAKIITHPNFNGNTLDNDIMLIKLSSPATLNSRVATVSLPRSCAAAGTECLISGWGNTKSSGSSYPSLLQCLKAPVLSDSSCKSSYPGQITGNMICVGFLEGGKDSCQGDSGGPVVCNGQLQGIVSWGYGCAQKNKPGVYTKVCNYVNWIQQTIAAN
In short: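 12.5 μg soluble peptide digested with 500 U/ml porcine trypsin in PBS, 30 min at 37.5° C; quenched with soybean trypsin inhibitor, with or without 10 mM DTT reduction afterwards. Intact peptide assessed by C-18 RP-HPLC, 5-45% acetonitrile/0.1% TFA gradient over 10 min.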

[4] = target: pepsin (Sus scrofa, UniProt P00791); assay: Pepsin digestion resistance in simulated gastric fluid, RP-HPLC; type: in vitro ADME, porcine; design: purchased Sigma Aldrich P7012; settings: 500 U/ml pepsin in SGF pH 1.05, 30 minutes at 37.5° C.; HPLC peak vs untreated peptide
pepsin, sequence (P00791 60-385): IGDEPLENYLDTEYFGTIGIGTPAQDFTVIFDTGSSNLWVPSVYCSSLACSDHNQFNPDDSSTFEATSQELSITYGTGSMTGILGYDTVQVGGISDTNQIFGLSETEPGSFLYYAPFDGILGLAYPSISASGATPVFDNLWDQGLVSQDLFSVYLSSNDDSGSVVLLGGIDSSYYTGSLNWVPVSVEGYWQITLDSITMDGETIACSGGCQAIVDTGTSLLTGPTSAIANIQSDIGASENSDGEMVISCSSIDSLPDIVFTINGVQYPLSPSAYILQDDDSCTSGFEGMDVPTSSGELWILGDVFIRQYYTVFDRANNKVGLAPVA
In short: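 Peptide (12.5 μg) incubated 30 min at 37.5 °C with or without 500 U/ml pepsin in simulated gastric fluid (pH 1.05; 2% NaCl in 0.7% HCl); some reactions quenched with 100 mM Tris and 10 mM DTT. Intact peptide followed by C-18 RP-HPLC (5–45% acetonitrile/0.1% TFA over 10 min) at 214 and 280 nm.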

[5] = Combined resistance grouping of hitchin peptides (FIG. 27, from Table 2 data); type: physicochemical; settings: FIG. 27 grouping of hitchin peptides
Protocol: As shown by the data in TABLE 2, the tested peptides of the present disclosure show a range of resistance to proteases, reduction, and high temperature. The peptides were classified as high, medium, or low for each condition. […] For example, after a peptide is treated at 100° C., if the HPLC peak of the peptide is mostly absent as compared to HPLC peak of the peptide not treated at 100° C., then the peptide is classified as low or having low resistance to 100° C. After a peptide is treated with reducing conditions, if there is no or very minimal HPLC peak that overlaps with the HPLC peak of the peptide not treated with reducing conditions, then the peptide is classified as low or having low resistance to reducing conditions.
The peptides with the highest resistance data were further analyzed. […] The six peptides that were further tested were peptides comprising the sequences of SEQ ID NO: 27, SEQ ID NO: 24, SEQ ID NO: 6, SEQ ID NO: 10, SEQ ID NO: 12, and SEQ ID NO: 57, which were all hitchins. […] FIG. 27C is a sequence analysis of SEQ ID NO: 27, SEQ ID NO: 24, SEQ ID NO: 6, SEQ ID NO: 10, SEQ ID NO: 12, and SEQ ID NO: 57 from FIG. 27B. FIG. 27C identifies which amino acids are present at each position in SEQ ID NO: 27, SEQ ID NO: 24, SEQ ID NO: 6, SEQ ID NO: 10, SEQ ID NO: 12, and SEQ ID NO: 57. For example, at position one, all peptide sequences comprise a G amino acid residue; at position two, all peptide sequences comprise an S amino acid residue; at position three, all peptide sequences comprise either G, Q, or V amino acid, or null; and at position four, all peptide sequences comprise V, R, or K amino acid, or null. […] SEQ ID NO: 167 and SEQ ID NO: 168 describe sequences of peptides that are particularly resistant to reduction, pepsin, 75° C., and 100° C., which would typically degrade peptides. […] Additionally, SEQ ID NO: 169 describes sequences of peptides that are also particularly resistant to trypsin.

[6] = Intravenous and oral administration of 14C-radiolabeled peptide to mice; plasma, urine, feces by liquid scintillation counting and HPLC; type: in vivo, female Harlan athymic nude mice; settings: mouse
Protocol: This example describes oral and intravenous administration of peptides of this disclosure. […] A peptide of SEQ ID NO: 27 was radiolabeled by the methods described in EXAMPLE 4, and was then administered intravenously or orally to female Harlan athymic nude mice, 6-8 weeks of age. Radiolabeled peptides of SEQ ID NO: 27 (SEQ ID NO: 27-r) was administered intravenously (IV) at a dose of 4.8 μCi/20 nmol. SEQ ID NO: 27-r was administered orally (PO) by oral gavage at a dose of 24 μCi/100 nmol. Mice were euthanized at various time points by CO2 asphyxiation and biological fluids were collected, including blood, urine, and feces. Samples were analyzed by RP-HPLC and liquid scintillation counting to quantify the concentration or dose of radioactivity and/or intact peptide recovered in plasma, urine, and feces. Urine was collected by abdominal palpitation immediately before CO2 asphyxiation. Blood was collected by cardiac puncture immediately after CO2 asphyxiation and centrifuged to separate plasma. Feces were collected either before or after CO2 asphyxiation by palpitation of the colon. Samples were analyzed by HPLC to quantify the concentration or dose of intact peptide recovered in plasma, urine, and feces. For HPLC analysis, urine samples were first diluted at a 1:20 ratio in water and plasma samples were diluted at a 1:5 ratio in water. Feces samples were dissolved in Tris buffer, centrifuged to remove the insoluble fraction, and supernatants were diluted at a 1:1 ratio in water.

[7] = SYPRO Orange melting assay; type: physicochemical; settings: heating from 20° C. to 95° C.
Protocol: Protein secondary structures were assessed using Circular Dichrosim (CD). CD spectra were measured with a Jasco J-720W spectropolarimeter using a 1.0 mm path length cell. Protein samples in 10 mM phosphate buffer (pH=7.4) were at 25-30 μM protein concentration. Samples were analyzed at wavelength ranges of […]. Data were expressed in terms of relative ellipticity [θ]; (mdeg). To determine thermal stability of proteins, samples were subjected to incremental increase in temperature at a ramp of 2° C./min from 20° C. to 95° C. Stability and protein unfolding were monitored at 220 and 215 for α-helix and β-sheet secondary structures, respectively. Data are expressed in terms of relative ellipticity [θ], reported in mdeg. For SEQ ID NO: 43 and its point mutant variants, no changes to the α-helix-dominated structure were observed upon heating up to 95° C. […] Additionally, protein melting temperature (Tm) determination was performed by monitoring protein unfolding using SYPRO Orange dye (Molecular Probes). In brief, 0.1 mg/mL protein sample in 20 μL total volume PBS buffer were mixed with 24, of 10× SYPRO Orange dye. Dye intercalation into the hydrophobic protein core following protein unfolding was assayed using the C1000 Touch Thermal Cycler with CFX96 Deep Well Real-Time System (BioRad). Samples were heated from 20° C. to 95° C. with stepwise increments of 0.5° C. per minute and a 5 sec hold step for every point, followed by fluorescence reading. Tm were calculated by analyzing the derivatives of Relative florescence Units (RFU). FIG. 17D illustrates this SYPRO Orange melting assay of Peptides.

Molecule: 52 (GSEGDCPISEAIKCVEKCKEKVEVCEPGVCKCSG) [compound 52]
- Resistance to Temperature (75° C.) ([1]; 75° C. for one hour, HPLC peak vs untreated peptide): High (A peptide classified as high indicates that the majority (at least 75%) of the HPLC peak of the treated peptide is still present as compared to the HPLC peak of the untreated peptide)
- Resistance to Temperature (100° C.) ([1]; 100° C. for one hour, HPLC peak vs untreated peptide): High (A peptide classified as high indicates that the majority (at least 75%) of the HPLC peak of the treated peptide is still present as compared to the HPLC peak of the untreated peptide)
- Resistance to DTT Reduction (10 mM) ([2]; 10 mM DTT in PBS, room temperature, 30 minutes, HPLC peak vs untreated peptide): Low (A peptide classified as low indicates that the majority (over 75%) of the HPLC peak of the treated peptide disappeared as compared to the HPLC peak of the untreated peptide)
- Resistance to Trypsin (500 U/ml) [3]: Low (A peptide classified as low indicates that the majority (over 75%) of the HPLC peak of the treated peptide disappeared as compared to the HPLC peak of the untreated peptide)
- Resistance to Pepsin (500 U/ml) [4]: High (A peptide classified as high indicates that the majority (at least 75%) of the HPLC peak of the treated peptide is still present as compared to the HPLC peak of the untreated peptide)

Molecule: GSAVCNLKRCQLSCRSLGLLGKCIGDKCECVKHG [SEQ ID NO: 8]
- combined resistance to reduction, pepsin and elevated temperatures such as 75° C. and 100° C. [5]: not highly resistant

Molecule: GSGVPTDVKCRGSPQCIQPCKDAGMRFGKCMNGKCHCTPK [SEQ ID NO: 56]
- combined resistance to reduction, pepsin and elevated temperatures such as 75° C. and 100° C. [5]: not highly resistant

Molecule: GSISIGIKCSPSIDLCEGQCRIRKYFTGYCSGDTCHCSG [SEQ ID NO: 3]
- resistance to incubation at 70° C. (in words) ([1]; 70° C. for 1 hour, HPLC): resistant
- resistance to incubation at 100° C. (in words) ([1]; 100° C. for 1 hour, HPLC): various degrees of degradation
- combined resistance to reduction, pepsin and elevated temperatures such as 75° C. and 100° C. [5]: not highly resistant

Molecule: GSNFKVEGACSKPCRKYCIDKGARNGKCINGRCHCYY [SEQ ID NO: 5]
- resistance to reduction by DTT (in words) ([2]; 10 mM DTT, HPLC vs non-reduced peptide): resistant
- combined resistance to reduction, pepsin and elevated temperatures such as 75° C. and 100° C. [5]: not highly resistant

Molecule: GSQIDTNVKCSGSSKCVKICIDRYNTRGAKCINGRCTCYP [SEQ ID NO: 35]
- combined resistance to reduction, pepsin and elevated temperatures such as 75° C. and 100° C. [5]: not highly resistant

Molecule: GSQKILSNRCNNSSECIPHCIRIFGTRAAKCINRKCYCYP [SEQ ID NO: 6]
- combined resistance to reduction, pepsin and elevated temperatures such as 75° C. and 100° C. [5]: highly resistant

Molecule: GSQVQTNVKCQGGSCASVCRREIGVAAGKCINGKCVCYRN [SEQ ID NO: 30]
- combined resistance to reduction, pepsin and elevated temperatures such as 75° C. and 100° C. [5]: not highly resistant

Molecule: GSQVSTNKKCSNTSQCYKTCEKVVGVAAGKCMNGKCICYP [SEQ ID NO: 18]
- combined resistance to reduction, pepsin and elevated temperatures such as 75° C. and 100° C. [5]: not highly resistant

Molecule: GSRPTDIKCSASYQCFPVCKSRFGKTNGRCVNGLCDCF [SEQ ID NO: 10]
- combined resistance to reduction, pepsin and elevated temperatures such as 75° C. and 100° C. [5]: highly resistant

Molecule: GSVRIPVSCKHSGQCLKPCKDAGMRFGKCMNGKCDCTPK [SEQ ID NO: 24]
- combined resistance to reduction, pepsin and elevated temperatures such as 75° C. and 100° C. [5]: highly resistant

Molecule: GSVVIGQRCYRSPDCYSACKKLVGKATGKCTNGRCDC [SEQ ID NO: 36]
- combined resistance to reduction, pepsin and elevated temperatures such as 75° C. and 100° C. [5]: not highly resistant

Molecule: SEQ ID NO: 27-r: radiolabeled peptide of SEQ ID NO: 27, by reductive methylation with 14C formaldehyde (GSGVPINVKCRGSRDCLDPCKKAGMRFGKCINSKCHCTP; cysteine pairing not given here; also: radiolabeled by reductive methylation with 14C formaldehyde (sites not given here))
- radioactivity in urine ([6]; IV 20 nmol and PO 100 nmol): some radioactivity from the administered peptide was detected
- time up to which radioactive signal from the dosed peptide was present in plasma ([6]; IV 20 nmol and PO 100 nmol): at least 50 hours
- plasma radioactivity as percent of the administered dose ([6]; IV, 20 nmol (4.8 μCi 14C)): ~10%
- nature of radioactively detected peptide in plasma (intact vs fragments) ([6]; PO 100 nmol, tandem HPLC and liquid scintillation counting): nearly all of the radioactively detected peptide in plasma was due to fragments
- intact peptide in feces ([6]; PO 100 nmol, tandem HPLC and liquid scintillation counting, 3 and 8 hours): detected
- plasma radioactivity as percent of the administered dose ([6]; PO by gavage, 100 nmol (24 μCi 14C)): ~1%

B1: HuScn: Human siderocalin, reference protein in the SYPRO Orange melting assay (protein, UniProt P80188 21-198, looked up)
Neutrophil …: QDSTSDLIPAPPLSKVPLQQNFQDNQFQGKWYVVGLAGNAILREDKDPQKMYATIYELKEDKSYNVTSVLFRKKKCDYWIRTFVPGCQPGEFTLGNIKSYPGLTSYLVRVVSTNYNQHAMVFFKKVSQNREYFKITLYGRTKELTSELKENFIRFSKSLGLPENHIVFPVPIDQCIDG
- melting temperature (Tm) [7]: 79 °C
